B1: ClpA (laboratory 'wild-type' ClpA carrying M169T), hexamer (enzyme, E. coli, UniProt P0ABH9 1-758, looked up)
chain: MLNQELELSLNMAFARAREHRHEFMTVEHLLLALLSNPSAREALEACSVDLVALRQELEAFIEQTTPVLPASEEERDTQPTLSFQRVLQRAVFHVQSSGRNEVTGANVLVAIFSEQESQAAYLLRKHEVSRLDVVNFISHGTRKDEPTQSSDPGSQPNSEEQAGGEERTENFTTNLNQLARVGGIDPLIGREKELERAIQVLCRRRKNNPLLVGESGVGKTAIAEGLAWRIVQGDVPEVMADCTIYSLDIGSLLAGTKYRGDFEKRFKALLKQLEQDTNSILFIDEIHTIIGAGAASGGQVDAANLIKPLLSSGKIRVIGSTTYQEFSNIFEKDRALARRFQKIDITEPSIEETVQIINGLKPKYEAHHDVRYTAKAVRAAVELAVKYINDRHLPDKAIDVIDEAGARARLMPVSKRKKTVNVADIESVVARIARIPEKSVSQSDRDTLKNLGDRLKMLVFGQDKAIEALTEAIKMARAGLGHEHKPVGSFLFAGPTGVGKTEVTVQLSKALGIELLRFDMSEYMERHTVSRLIGAPPGYVGFDQGGLLTDAVIKHPHAVLLLDEIEKAHPDVFNILLQVMDNGTLTDNNGRKADFRNVVLVMTTNAGVRETERKSIGLIHQDNSTDAMEEIKKIFTPEFRNRLDNIIWFDHLSTDVIHQVVDKFIVELQVQLDQKGVSLEVSQEARNWLAEKGYDRAMGARPMARVIQDNLKKPLANELLFGSLVDGGQVTVALDKEKNELTYGFQSAQKHKAEAAH
notes: ClpA, E. coli, AAA+ unfoldase with D1 and D2 modules; full-length with the M169T substitution that helps overexpression; also called ClpA6; WTClpA
B2: ClpP-His6, 14-mer (enzyme)
chain: not shown
notes: ClpP peptidase, E. coli; The atomic models hold one heptameric ClpP ring; also called ClpP14; ClpP7 ring; copies: 14
B3: ClpS adaptor (natural protein, E. coli)
chain: MGKTNDWLDFDQLAEEKVRDALKPPSMYKVILVNDDYTPMEFVIDVLQKFFSYDVERATQLMLAVHYQGKAICGVFTAEVAETKVAMVNKYARENEHPLLCTLEKA
notes: ClpS, E. coli, ~10 kDa; N-terminal extension (NTE) res; 2–26 and core domain res; 27–106; The NTE (res. 2–26) and the core (res. 27–106) are both spoken of, so the whole protein is likely; also called native ClpS; source: E. coli BL21(DE3), purified as described for His6-SUMO-fusion proteins

Data set [1] addresses B2. Kind of data set: cryo-EM structure; ClpA6 (4 µM), ClpP14 (8 µM), ClpS (13 µM) and YLFVQELA-GFP (13 µM) mixed in assembly buffer (50 mM HEPES-KOH pH 7.5, 300 mM KCl, 5 mM MgCl2, 2 mM TCEP, 4% glycerol, 2 mM ATPγS), 5 min at 25 °C; largest complex from Superdex-200 taken for single-particle cryo-EM. As to conditions: both partners purified.
Data set [2] deals with the molecule itself. The data set is described as above.
Data set [3] addresses B1. The description is as above. As to conditions: both partners purified.
Data set [4] has as its target B3. Kind of data set: fluorescence polarisation; fluorescence anisotropy at equilibrium; ClpS alone (1.25–30 µM) titrated against 100 nM …-fluorescein; 30 °C, HO buffer, 2 mM ATPγS. As to conditions: both partners purified. (In general: Fluorescence polarisation rises when a labelled molecule tumbles more slowly, as on binding a larger partner.)

Ends that are not written are not given here.

In the case of B1, the stoichiometry N (as a rule, the number of molecules, sites or subunits per partner or assembly) in data set [1] was 2 ClpA hexamers per ClpP 14-mer; in data set [2], 6. B2: the binding result in data set [3] is recorded as “binds”. Moreover, the “stoichiometry N” value in data set [2] worked out at 14. With B3, the binding result in data set [3] is listed as “binds”.

B4: LLYVQRDSKEC-fluorescein N-degron synthetic peptide (peptide)
peptide: LLYVQRDSKEC-fluorescein
modifications: not fully specified (residue 11); printed as LLYVQRDSKEC-fluorescein
notes: synthetic N-degron peptide, molecular weight 1779.9 g/mol; also called fluorescein-labeled N-degron peptide; N-degron peptide; source: synthetic peptide (21st Century Biochemicals)
Regarding B4, the binding result in data set [4] is reported as “binds”.

These data come from article PMC9663308, “AAA+ protease-adaptor structures reveal altered conformations and ring specialization” (Nature Structural & Molecular Biology, 2022).
